According to patent publication US20020028208A1 (TEXAS A AND M UNIVERSITY SYSTEM, published 2002):

B1: feline CD28, surface expressed on CD28-pSI transfected COS-7 cells (receptor)
chain: NKILVKQLPRLVVYNNEVNLSCKYTHNFFSKEFRASLYKGVDSAVEVCVVNGNYSHQPQFYSSTGFDCDGKLGNETVTFYLRNLFVNQTDIYFCKIEVMYPPPYIDNEKSNGTIIHVKEKHLCPAQLSPESSKPFWALVVVGGILGFYSLLATVALGACWMKTKRSRILQSDYMNMTPRRPGPTRRHYQPYAPARDFAAYRS
notes: also called feCD28; CD28 pSI transfected cells

Columns and labels:
[1] = molecular target: B1; assay: cell-cell adhesion assay at 1x10^6 labeled CD80-pSI COS-7 cells on a CD28-pSI COS-7 monolayer; still significantly higher at 5x10^5 cells, not distinguishable at 1x10^5 and 1x10^4
Method: (§1) Binding assays for transfected cells expressing feline CD80 and feline CD28 were performed after the protocol described in Linsley et al., 1994a. One day after transfection, CD28 expressing COS-7 cells were removed from T-75 flasks with trypsin-EDTA treatment. The cells were allowed to adhere in 24 well plates at a concentration of 1×10⁵ cells per ml. Two days later, the feCD80/pSI transfected COS-7 cells were removed from T-75 flasks with PBS/0.5 […] EDTA. These cells were then fluorescently labeled with a 5 μM solution of Calcein AM (Molecular Probes, Eugene, Oreg.) in sterile PBS/1% BSA for 30 min at 37° C. (Akeson and Woods, 1993). Mock transfected COS-7 cells were labeled in the same fashion. The labeled cells were then washed three times with DMEM plus 10% FCS to remove unincorporated label, counted, and added directly to the monolayer. The two cell populations were allowed to interact for 1 hr at 37° C. Nonadherent cells were removed by gently washing the monolayer 3 times with DMEM +10% FCS. Following the washing, the fluorescence of each of the wells was quantitated on a microplate fluorimeter. Fluorescence in wells containing transfected populations was compared to wells in which CD80 expressing cells were added to COS-7 cells transfected with pSI plasmid alone. […]

[2] = molecular target: T1, huCD80-Ig fusion protein (human, UniProt P33681 35-241); assay: competitive cell-cell adhesion assay: CD28-pSI COS-7 monolayer pre-incubated with CD80 Ig at 1 ug/ml for 30 min and washed before labeled CD80-pSI COS-7 cells were added
T1 construct: Provided by P. Linsley, Bristol-Meyers Squibb; also called soluble CD80 receptor; soluble receptor for CD28; not shown: Ig part of the fusion
T1 sequence (looked up): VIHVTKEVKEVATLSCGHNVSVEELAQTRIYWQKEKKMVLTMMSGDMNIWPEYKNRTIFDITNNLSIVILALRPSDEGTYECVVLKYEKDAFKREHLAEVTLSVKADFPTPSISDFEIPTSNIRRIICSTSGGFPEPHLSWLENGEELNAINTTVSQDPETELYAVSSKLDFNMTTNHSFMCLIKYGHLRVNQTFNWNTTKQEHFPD
Method: as §1

Row | Binder | fluorescence retained, fold over wells with mock transfected adherent cells [1] [fold] | binding result [2]
1 | feline CD80 (B7-1)-TAMU, surface expressed on feCD80/pSI transfected COS-7 cells (ligand, also called CD80-pSI transfected COS cells) ASLFYFCSGIIQVNKTVEEVAVLSCDYNISTKELTEIRIYWQKDDEMVLAVMSGKVQVWPKYKNRTFTDVTDNHSIVIMALRLSDNGKYTCIIQKIEKGSYKVKHLTSVMLLVRADFPVPSITDLGNPSHNIKRIMCLTSGGFPKPHLSWLENEEELNAINTTVSQDPETELYTISSELDFNMTNNHSFLCLVKYGNLLVSQIFNWQKSEPQPSNNQLWIIILSSVVSGIVVITALTLRCLVHRPAARWRQREMGRARKWKRSHLST | ~5 | –
2 | B1 | – | binds
